Data: article PMC11341715
Values belong to the binder of their own block, whether it stands above or below them.

Columns and labels:
[1] = molecular target: biotinylated multidomain FZD3 (C-terminally truncated, in detergent) (human) (UniProt Q9NPG1); assay: BLI; Octet Red 96e; biotinylated multidomain FZD3 or FZD6 in detergent immobilised, nanobody or DEP in solution; 10 mM HEPES pH 7.5, 150 mM NaCl, 0.02% Tween 20, 0.005% GDN; 1:1 binding model
[2] = molecular target: biotinylated FZD3 cysteine-rich domain (CRD) (human) (UniProt Q9NPG1); assay: BLI; Octet Red 96e; biotinylated FZD3 or FZD6 CRD immobilised, Nb8 or Wnt5a in solution; 10 mM HEPES pH 7.5, 150 mM NaCl, 0.02% Tween 20, 0.005% GDN; 1:1 binding model
[3] = molecular target: biotinylated FZD6 cysteine-rich domain (CRD) (human); assay: as above
Sequence of biotinylated FZD6 cysteine-rich domain (CRD) (human) (O60353 22-139): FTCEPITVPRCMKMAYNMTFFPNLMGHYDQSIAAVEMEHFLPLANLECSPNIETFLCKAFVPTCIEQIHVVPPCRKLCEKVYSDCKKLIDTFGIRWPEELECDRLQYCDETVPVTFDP

Kd [1]: 460 nM
B1: DVL2 DEP domain (domain or fragment)
chain: PESGLEVRDRMWLKITIPNAFLGSDVVDWLYHHVEGFPERREARKYASGLLKAGLIRHTVNKITFSEQCYYVFGD

Kd [2]: 83 nM
B2: human Wnt5a (ligand)
chain: IIGAQPLCSQLAGLSQGQKKLCHLYQDHMQYIGEGAKTGIKECQYQFRHRRWNCSTVDNTSVFGRVMQIGSRETAFTYAVSAAGVVNAMSRACREGELSTCGCSRAARPKDLPRDWLWGGCGDNIDYGYRFAKEFVDARERERIHAKGSYESARILMNLHNNEAGRRTVYNLADVACKCHGVSGSCSLKTCWLQLADFRKVGDALKEKYDSAAAMRLNSRGKLVQVNSRFNSPTTQDLVYIDPSPDYCVRNESTGSLGTQGRLCNKTSEGMDGCELMCCGRGYDQFKTVQTERCHCKFHWCCYVKCKKCTEIVDQFVCK

Kd [3]: 1200 nM
B3: Nb8 (VHH)
VHH: QVQLVESGGGLVQAGGSLRLSCAASGSISSINAMGWYRQAPGKQRELVAAITSGGSTNYADSVKGRFTISRDNAKNTVYLQMNSLKPGDTAVYYCNLLYYIDYVEYDYWGQGTQVTVSS
